In patent publication US20220204603A1 (PHARMABCINE, published 2022):

B1: No. 46 anti-Ang2 antibody (IgG) (antibody, V domains shown)
VH: QVQLVESGGGLVQPGRSLRLSCAASGFTFDDCAMHWVRQAPGKGLEWVSGISGNSKNVAYADSVKGRFSISRDDAKNSLYLQMNSLRAEDTAVYYCARDPAYSQFDYWGQGTLITVSS
VL: QSALTQPPSLSATPGQRVTISCSGSSSNVGGYPVNWYQQVPGAAPKLLMYTDYKRPSGVPDRFFGSKSGTSASLAISGLQSEDEADYYCATWDDNLNGYVFGTGTKVTVLG
notes: IgG form: VH cloned into Invivogen pfusess-hchg1, VL into Invivogen pfuse2ss-hclk; also called 3C6
B2: No. 4 anti-Ang2 antibody (IgG) (antibody, V domains shown)
VH: QVQLVESGAEVKRPGESLRISCKTSGYSFTSYWIHWVRQMPGKELEWMGSIYPGNSDTRYSPSFQGHVTISADSSSSTAYLQWSSLKASDTAMYYCTTEGLMNGLHFDMWGQGTMVTVSS
VL: DIVMTQTPLSLPVTPGEPASISCRSSQSLLHSLGDNYLDWYLQKPGQSPQLLIYLGSKRAAGVPDRFSGSGSGTDFTLKISRVEAEDVGVYYCMQSLQTPPYTFGQGTKLEIKR
notes: IgG form: VH cloned into Invivogen pfusess-hchg1, VL into Invivogen pfuse2ss-hclk; also called 2D8
B3: No. 3 anti-Ang2 antibody (IgG) (antibody, V domains shown)
VH: QMQLVQSGGGLVQPGRSLKLSCAASGFSFDDYAMHWVRQAPGKGLEWVATIKDDGSQTYYVDSVKGRFTISRDNAKSSLFLQMNSLRAEDTAVYYCTTEGLMNGLHFDMWGQGTMVTVSS
VL: LVLTQPPSVSGAPGQGVTISCTGSSSNIGAGYDVHWYQQFPGTAPKLLISGNNNRPSGLPDRFSGSKSGTSASLAITGLQAEDEADYYCQSYDSRLGVVFGGGTKLTVLG
notes: IgG form: VH cloned into Invivogen pfusess-hchg1 (heavy chain constant region), VL into Invivogen pfuse2ss-hclk (light chain constant region); Expressed in Expi293F, purified on Protein A; also called 1D10
B4: No. 41 anti-Ang2 antibody (IgG) (antibody, V domains shown)
VH: QVQLVESGGGLVQPGGSLRLSCEASGFAFGRYEMNWVRQAPGKGLEWIAYIDTGGGAKVYADSVKGRFTISRDDSKNSLYLQMNSLRAEDTAVYYCTTEGLMNGLHFDMWGQGTMITVSS
VL: DIQMTQSPSTLSASVGDRVAITCRASQAISTWLAWYQQKPGKAPKLLIYTASTLESGVPSRFSGSGSGTDFTLTINSLQPDDFATYYCQQLNSYPYTFGGGTKVEIKR
notes: IgG form: VH cloned into Invivogen pfusess-hchg1, VL into Invivogen pfuse2ss-hclk; also called 2B2
B5: No. 8 anti-Ang2 antibody (IgG) (antibody, V domains shown)
VH: QVQLVESGGGLVKPGGSLRLSCAASGFTFSSYSMNWVRQAPGKGLEWVSSISASDGATYYADSVRGRFTISRDNSRSTLYLQMNSLRAEDTAVYYCAKILAGYSGPMGGMDVWGQGTTVTVSS
VL: DIQMTQSPSSLSASVGDRVTITCRASRDISNYLAWYQQKPGKAPKSLIYGASNLQSGVSSQFSGSGSGTDFTLTINSLQPEDSATYYCQQYYSYPLTFGGGTKVDIKR
notes: IgG form: VH cloned into Invivogen pfusess-hchg1, VL into Invivogen pfuse2ss-hclk; also called 3A10

How the values were obtained:
[1] = target: T1, mouse Ang2 (construct not stated) (mouse, UniProt O35608 19-496, limits assumed); assay: SPR Biacore T200, antibody captured on protein A chip, Ang2 as analyte, 1:1 model
T1 construct: also called mAng2
T1 sequence (looked up): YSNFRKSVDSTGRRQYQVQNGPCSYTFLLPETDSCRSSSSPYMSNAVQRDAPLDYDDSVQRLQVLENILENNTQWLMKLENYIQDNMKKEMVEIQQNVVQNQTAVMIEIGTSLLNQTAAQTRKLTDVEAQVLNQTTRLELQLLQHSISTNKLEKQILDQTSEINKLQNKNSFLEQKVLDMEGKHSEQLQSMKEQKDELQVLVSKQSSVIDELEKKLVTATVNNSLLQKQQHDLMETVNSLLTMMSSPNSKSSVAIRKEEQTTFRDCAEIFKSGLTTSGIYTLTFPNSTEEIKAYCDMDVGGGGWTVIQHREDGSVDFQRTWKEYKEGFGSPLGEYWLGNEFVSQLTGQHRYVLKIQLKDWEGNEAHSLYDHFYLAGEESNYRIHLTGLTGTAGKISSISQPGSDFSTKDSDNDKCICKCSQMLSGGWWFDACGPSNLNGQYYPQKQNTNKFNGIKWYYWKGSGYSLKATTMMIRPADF
Description: To analyze the binding affinity of the selected anti-Ang2 antibodies, affinity analysis for human Ang2 and mouse Ang2 was performed using BIACORE® T200 (GE Healthcare). A protein A sensor chip was used, and an experiment was conducted in accordance with the manufacturer's manual. Detailed analysis conditions are as follows. 2000 response units (RU) of protein A were immobilized, 25 RU of anti-Ang2 antibody candidates were used for binding, and various concentrations of human Ang2 and mouse Ang2 were allowed to bind. The starting concentrations for analysis are 100 nM and 150 nM, respectively. The analysis proceeded at a flow rate of 30 μl/min, the binding and dissociation time of human Ang2 was measured as 300 seconds and 2000 seconds, respectively, and the binding and dissociation time of mouse Ang2 was analyzed as 300 seconds and 1000 seconds, respectively. Analysis was performed using a 1:1 binding model as an analytical model.

[2] = target: T1, mouse Ang2 (construct not stated); assay: competition ELISA: antibody preincubated with mAng2, binding to coated mouse Tie2-Fc
[3] = target: T2, His-tagged human Ang1 (R&D systems, 923-AN/CF) (human, UniProt Q15389 20-498, limits assumed); assay: binding ELISA, His-tagged human Ang1 coated at 1 µg/ml, detection with HRP anti-human IgG(kappa) [panel 'human Ang1 binding ELISA']
T2 construct: Bought protein; also called hAng1-his; not shown: His tag
T2 sequence (looked up): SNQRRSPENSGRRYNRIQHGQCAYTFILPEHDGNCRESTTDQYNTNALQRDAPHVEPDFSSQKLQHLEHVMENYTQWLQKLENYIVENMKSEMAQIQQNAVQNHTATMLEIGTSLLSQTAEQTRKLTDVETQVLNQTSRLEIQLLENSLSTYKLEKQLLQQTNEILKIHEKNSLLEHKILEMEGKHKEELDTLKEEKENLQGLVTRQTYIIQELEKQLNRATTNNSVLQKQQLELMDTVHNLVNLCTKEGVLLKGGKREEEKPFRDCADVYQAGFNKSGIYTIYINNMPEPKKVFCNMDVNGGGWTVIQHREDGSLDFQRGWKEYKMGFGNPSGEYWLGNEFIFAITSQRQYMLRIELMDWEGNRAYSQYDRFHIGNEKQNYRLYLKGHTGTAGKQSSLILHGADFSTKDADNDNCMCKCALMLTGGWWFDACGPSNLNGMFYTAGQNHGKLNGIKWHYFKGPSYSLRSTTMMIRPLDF
Description: 1 μg/ml (100 μl per well) of a His-tagged human (R&D systems, 623-AN/CF) or mouse (sino, 50298-M07H) Ang2 solution or a His-tagged human (R&D systems, 923-AN/CF) or mouse (sino, 50300-M07H) Ang1 solution was added to a 96-well immunoplate (Nunc, US) and allowed to stand overnight at 4° C. for adsorption. The next day, the solution was washed three times with PBS containing 0.05% Tween-20 (hereinafter, referred to as PBST), and 200 μl of a 2% BSA/PBST solution was added to each well and then allowed to stand at room temperature for 2 hours to perform blocking. After washing three times with PBST, 100 μl of each test antibody solution was added to each well according to concentration to cause binding at room temperature for 1 hour, and then washing was performed three times with PBST, 100 μl of HRP-conjugated goat anti-human IgG(kappa) (bethyl lab #A80-115P) diluted to 1:2000 was added and allowed to react at room temperature for 1 hour, thereby inducing binding, and after washing three times with PBST, color development was performed using 100 μl of a TMB substrate reagent. The color development reaction was stopped by adding 50 μl of 2N H₂SO₄, and a Sunrise microplate reader (TECAN, CH) was used to measure specific absorbance OD₄₅₀₋₆₃₀ (FIG. 3).

Row | Binder | Kd [1] [nM] | koff [1] [s⁻¹] | kon [1] [M⁻¹ s⁻¹] | IC50 [2] [nM] | binding result [3]
1 | B1 | 0.193 | 8.94e-05 | 465000 | 5.25 | no binding (tested: 2 mg/ml (unit as read in the legend))
2 | B2 | 0.45 | 7.05e-05 | 157000 | 4.54 | no binding (tested: 2 mg/ml (unit as read in the legend))
3 | B3 | 0.538 | 8.53e-05 | 158000 | 5.02 | no binding (tested: 2 mg/ml (unit as read in the legend))
4 | B4 | 0.328 | 9.47e-05 | 289000 | 3.98 | no binding (tested: 2 mg/ml (unit as read in the legend))
5 | B5 | 0.463 | 6.69e-05 | 144000 | 4.83 | no binding (tested: 2 mg/ml (unit as read in the legend))
